B1: CPEB3 Ribozyme (parent)
chain: UAACAGGGGGCCACAGCAGAAGCGUUCACGUCGCAGCCCCUGUCAGAUUCUGGUGAAUCUGCGAAUUCUGCUGUAUAUCUC

Variants of: B1
Assay: self-cleavage, relative activity (ratio to wild type); higher = more cleavage; in vitro, sequencing
How it was run: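 After error-prone PCR and barcoding, CPEB3 ribozyme mutant libraries were transcribed with T7 RNA polymerase at 37°C for 5 hours, then given 15 min with DNase I before an EDTA stop, and they cleaved during both steps. Reverse transcription with template switching preceded Illumina sequencing. Relative activity divides a variant's cleaved/total read fraction by the unmutated ribozyme's. At least 5 reads were required per variant, and three batches were averaged.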

**Q.** With G10A A28U as the variant, how does the self-cleavage read?
**A.** Its self-cleavage is 0.17.

**Q.** Which self-cleavage does the source give for G10A A28G here?
**A.** Its self-cleavage is 0.21.

**Q.** With G10A A28C as the variant, how does the self-cleavage read?
**A.** Its self-cleavage is 0.1.

**Q.** For G10C U69A, which self-cleavage is on record?
**A.** The self-cleavage was 0.3.

**Q.** With G10C U69C as the variant, how does the self-cleavage read?
**A.** Its self-cleavage is 0.12.

**Q.** With G10C U69G as the variant, how does the self-cleavage read?
**A.** The self-cleavage was 0.16.

**Q.** For G10C U58C, which self-cleavage is on record?
**A.** Its self-cleavage is 0.19.

**Q.** With G9U U54C as the variant, how does the self-cleavage read?
**A.** The self-cleavage was 0.1.

**Q.** Which self-cleavage does the source give for G9U U54A here?
**A.** Its self-cleavage is 0.08.

**Q.** For G10U U41A, which self-cleavage is on record?
**A.** The self-cleavage was 0.22.

**Q.** Which self-cleavage does the source give for G10U C38G here?
**A.** Its self-cleavage is 0.17.

**Q.** With G10U A21G as the variant, how does the self-cleavage read?
**A.** The self-cleavage was 0.08.

**Q.** Which self-cleavage does the source give for G10U A21C here?
**A.** Its self-cleavage is 0.06.

**Q.** With G10C U54C as the variant, how does the self-cleavage read?
**A.** Its self-cleavage is 0.39.

**Q.** With G10C U54A as the variant, how does the self-cleavage read?
**A.** Its self-cleavage is 0.26.

**Q.** With G9U A35C as the variant, how does the self-cleavage read?
**A.** The self-cleavage was 0.14.

**Q.** For G9U A35G, which self-cleavage is on record?
**A.** The self-cleavage was 0.33.

**Q.** Which self-cleavage does the source give for G9U A35U here?
**A.** The self-cleavage was 0.14.

**Q.** For C11A A15G, which self-cleavage is on record?
**A.** Its self-cleavage is 0.21.

**Q.** For C11A A15U, which self-cleavage is on record?
**A.** Its self-cleavage is 0.37.

**Q.** Which self-cleavage does the source give for G9U U49A here?
**A.** Its self-cleavage is 0.41.

**Q.** With G9U U49C as the variant, how does the self-cleavage read?
**A.** Its self-cleavage is 0.11.

**Q.** For G9U C14U, which self-cleavage is on record?
**A.** The self-cleavage was 0.11.

**Q.** Which self-cleavage does the source give for G9U A65G here?
**A.** The self-cleavage was 0.17.

**Q.** For G10C A57G, which self-cleavage is on record?
**A.** The self-cleavage was 0.21.

**Q.** Which self-cleavage does the source give for G10U U58C here?
**A.** Its self-cleavage is 0.34.

**Q.** For G9U C59U, which self-cleavage is on record?
**A.** Its self-cleavage is 0.06.

**Q.** For G10A U43A, which self-cleavage is on record?
**A.** The self-cleavage was 0.28.

**Q.** With G10A U43G as the variant, how does the self-cleavage read?
**A.** Its self-cleavage is 0.19.

**Q.** For G10A U43C, which self-cleavage is on record?
**A.** Its self-cleavage is 0.06.

**Q.** For G10A A47G, which self-cleavage is on record?
**A.** Its self-cleavage is 0.12.

**Q.** With G10A A57U as the variant, how does the self-cleavage read?
**A.** Its self-cleavage is 0.05.

**Q.** With G10A A57G as the variant, how does the self-cleavage read?
**A.** Its self-cleavage is 0.29.

**Q.** Which self-cleavage does the source give for G10A C39A here?
**A.** The self-cleavage was 0.37.

**Q.** With G10C U78C as the variant, how does the self-cleavage read?
**A.** The self-cleavage was 0.17.

**Q.** With G10C U78A as the variant, how does the self-cleavage read?
**A.** Its self-cleavage is 0.09.

**Q.** With G10A U26C as the variant, how does the self-cleavage read?
**A.** The self-cleavage was 0.22.

**Q.** Which self-cleavage does the source give for G10A U26G here?
**A.** The self-cleavage was 0.05.

**Q.** Which self-cleavage does the source give for G10A U26A here?
**A.** Its self-cleavage is 0.07.

**Q.** With G10U A77G as the variant, how does the self-cleavage read?
**A.** The self-cleavage was 0.35.

**Q.** Which self-cleavage does the source give for G10U A77U here?
**A.** Its self-cleavage is 0.07.

**Q.** For G10A U74C, which self-cleavage is on record?
**A.** The self-cleavage was 0.25.

**Q.** Which self-cleavage does the source give for G10A U74G here?
**A.** The self-cleavage was 0.14.

**Q.** With G10A U74A as the variant, how does the self-cleavage read?
**A.** Its self-cleavage is 0.25.

**Q.** With G9U U51C as the variant, how does the self-cleavage read?
**A.** The self-cleavage was 0.17.

**Q.** For G9U U51A, which self-cleavage is on record?
**A.** Its self-cleavage is 0.14.

**Q.** Which self-cleavage does the source give for G10C A47U here?
**A.** The self-cleavage was 0.15.

**Q.** For C11A A57G, which self-cleavage is on record?
**A.** The self-cleavage was 0.33.

**Q.** With G9U U43C as the variant, how does the self-cleavage read?
**A.** Its self-cleavage is 0.15.

**Q.** For G9U U43A, which self-cleavage is on record?
**A.** The self-cleavage was 0.52.

**Q.** Which self-cleavage does the source give for G9U U43G here?
**A.** Its self-cleavage is 0.12.

**Q.** Which self-cleavage does the source give for G10A U49G here?
**A.** Its self-cleavage is 0.18.

**Q.** For G10A U49C, which self-cleavage is on record?
**A.** The self-cleavage was 0.19.

**Q.** For G10U G33U, which self-cleavage is on record?
**A.** Its self-cleavage is 0.1.

**Q.** For G10U G33A, which self-cleavage is on record?
**A.** Its self-cleavage is 0.23.

**Q.** For G9U U78A, which self-cleavage is on record?
**A.** Its self-cleavage is 0.27.

**Q.** With G9U U78C as the variant, how does the self-cleavage read?
**A.** Its self-cleavage is 0.2.

**Q.** With G10C U48C as the variant, how does the self-cleavage read?
**A.** Its self-cleavage is 0.22.

**Q.** For G10A A45G, which self-cleavage is on record?
**A.** Its self-cleavage is 0.22.

**Q.** Which self-cleavage does the source give for G10A A45U here?
**A.** The self-cleavage was 0.19.

**Q.** For G10A C27G, which self-cleavage is on record?
**A.** The self-cleavage was 0.16.

**Q.** For C11A A65U, which self-cleavage is on record?
**A.** The self-cleavage was 0.18.

**Q.** With C11A A65G as the variant, how does the self-cleavage read?
**A.** Its self-cleavage is 0.26.

**Q.** With G10U A56U as the variant, how does the self-cleavage read?
**A.** Its self-cleavage is 0.08.

**Q.** Which self-cleavage does the source give for G10U A56G here?
**A.** Its self-cleavage is 0.16.

**Q.** Which self-cleavage does the source give for G9U C12U here?
**A.** Its self-cleavage is 0.2.

**Q.** For G10C A35G, which self-cleavage is on record?
**A.** Its self-cleavage is 0.28.

**Q.** For G9U A45C, which self-cleavage is on record?
**A.** Its self-cleavage is 0.05.

**Q.** For G9U A45G, which self-cleavage is on record?
**A.** Its self-cleavage is 0.11.

**Q.** For G9U A45U, which self-cleavage is on record?
**A.** The self-cleavage was 0.04.

**Q.** With G10A C23A as the variant, how does the self-cleavage read?
**A.** Its self-cleavage is 0.06.

**Q.** For G10A, which self-cleavage is on record?
**A.** The self-cleavage was 0.26.

**Q.** For G10C, which self-cleavage is on record?
**A.** Its self-cleavage is 0.25.

**Q.** For G10U, which self-cleavage is on record?
**A.** The self-cleavage was 0.23.

**Q.** For G9U U58C, which self-cleavage is on record?
**A.** Its self-cleavage is 0.14.

**Q.** For G10U A28G, which self-cleavage is on record?
**A.** The self-cleavage was 0.17.

**Q.** For G10U G52U, which self-cleavage is on record?
**A.** The self-cleavage was 0.09.

**Q.** Which self-cleavage does the source give for G10A A13U here?
**A.** The self-cleavage was 0.28.

**Q.** Which self-cleavage does the source give for G10A A13C here?
**A.** Its self-cleavage is 0.28.

**Q.** For G10A A13G, which self-cleavage is on record?
**A.** The self-cleavage was 0.26.

**Q.** Which self-cleavage does the source give for G10U A57U here?
**A.** The self-cleavage was 0.07.

**Q.** With G10U A57G as the variant, how does the self-cleavage read?
**A.** Its self-cleavage is 0.23.

**Q.** Which self-cleavage does the source give for G10A G46U here?
**A.** Its self-cleavage is 0.17.
